T1: human IL-2Rα (human, UniProt P01589 22-240, limits assumed)
T1 construct: recombinant protein; also called hu IL-2R; human IL-2Ra
T1 sequence: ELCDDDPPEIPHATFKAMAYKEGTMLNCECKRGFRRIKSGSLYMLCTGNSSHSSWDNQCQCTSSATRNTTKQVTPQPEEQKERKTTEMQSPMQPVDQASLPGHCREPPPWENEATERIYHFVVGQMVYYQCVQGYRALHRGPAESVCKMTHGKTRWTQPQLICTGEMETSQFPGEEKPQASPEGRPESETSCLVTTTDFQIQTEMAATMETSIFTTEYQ

T2: mouse IL-2Rα (mouse, UniProt P01590 22-236, limits assumed)
T2 construct: recombinant protein; also called mo IL-2R; mouse IL-2Ra
T2 sequence (looked up): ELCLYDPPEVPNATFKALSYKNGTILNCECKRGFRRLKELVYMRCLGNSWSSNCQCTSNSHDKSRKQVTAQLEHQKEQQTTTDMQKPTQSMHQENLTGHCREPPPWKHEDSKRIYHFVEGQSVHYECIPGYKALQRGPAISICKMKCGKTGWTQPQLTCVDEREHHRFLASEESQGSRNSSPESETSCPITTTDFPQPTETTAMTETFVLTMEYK

T3: human IL-2Rγ (common cytokine receptor γ-chain) (human, UniProt P31785 23-262, limits assumed)
T3 construct: Recombinant protein coated on the plate or immobilised on a CM5 chip; also called hu IL-2R; CD132
T3 sequence: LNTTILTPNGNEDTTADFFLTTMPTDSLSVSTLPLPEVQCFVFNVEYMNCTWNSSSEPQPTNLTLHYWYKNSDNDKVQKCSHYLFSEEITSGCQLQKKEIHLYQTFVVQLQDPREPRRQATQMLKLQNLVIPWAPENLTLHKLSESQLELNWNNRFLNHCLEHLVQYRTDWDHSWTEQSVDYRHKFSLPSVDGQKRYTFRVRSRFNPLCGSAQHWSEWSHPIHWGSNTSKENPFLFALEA

T4: mouse IL-2Rγ (mouse, UniProt P34902 23-263)
T4 construct: also called mo IL-2R
T4 sequence (looked up): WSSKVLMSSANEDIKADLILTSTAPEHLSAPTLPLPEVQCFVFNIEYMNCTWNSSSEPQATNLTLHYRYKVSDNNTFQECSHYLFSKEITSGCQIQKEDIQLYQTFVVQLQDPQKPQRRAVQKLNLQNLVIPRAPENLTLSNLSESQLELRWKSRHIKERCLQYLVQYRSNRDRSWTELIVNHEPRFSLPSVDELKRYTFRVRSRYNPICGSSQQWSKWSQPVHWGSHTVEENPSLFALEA


Experiments:
human IL-2Rα [1] = target: T1, human IL-2Rα; assay: ELISA, P.E. on coated antigen
In short: (§1)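 Direct-coat ELISA: receptor protein o/n 4° C → 4% Marvel/PBS block 1 h → P.E. 1:5 in 1% Marvel/PBS, 1 h → OD450 vs neg. controls.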

mouse IL-2Rα [2] = target: T2, mouse IL-2Rα; assay: ELISA, P.E. on coated antigen
In short: as §1

human IL-2Rα [3] = target: T1, human IL-2Rα; assay: SPR, P.E. on immobilised antigen
In short: (§2)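 Recombinant receptor was amine-coupled in acetate buffer onto a CM5 carboxymethyl dextran chip at approximately 2500 RU. VHH-containing periplasmic extracts were injected at 30 uL/min, and dissociation was followed for 120s to give off-rates.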

mouse IL-2Rα [4] = target: T2, mouse IL-2Rα; assay: SPR, P.E. on immobilised antigen
In short: as §2

[5] = target: T3, human IL-2Rγ (common cytokine receptor …); assay: PE binding ELISA, periplasmic extract on coated protein
In short: as §1

mouse IL-2Rγ [6] = target: T4, mouse IL-2Rγ; assay: as above
In short: as §1

[7] = target: T3, human IL-2Rγ (common cytokine receptor …); assay: SPR off-rate ranking, periplasmic extract on immobilised protein
In short: as §2

mouse IL-2Rγ [8] = target: T4, mouse IL-2Rγ; assay: as above
In short: as §2

Row | Binder | OD (PE binding ELISA) (human IL-2Rα [1]) | OD (PE binding ELISA) (mouse IL-2Rα [2]) | koff (human IL-2Rα [3]) | koff (mouse IL-2Rα [4]) | OD (PE binding ELISA) [5] | OD (PE binding ELISA) (mouse IL-2Rγ [6]) | koff [7] | koff (mouse IL-2Rγ [8])
1 | FJ1427_P035MP05A05 (VHH, periplasmic extract; also called clone nr; 417) VHH: QLQLVESGGGLVQAGGSLRLSCAASGLTFDGYAIGWFRQASGKEREGVSYINGRDGSTFYADSVKGRFIISSDNAKNTVDLQMNSLKPDDAAVYYCAVDRLGSRGAYVSTWWRPPDMDLWGKGTLVTVSP | 1.86 OD450 nm | 0.052 OD450 nm | 0.00341 s⁻¹ | 0.0172 s⁻¹ | – | – | – | –
2 | 9-MP05G01 (VHH, periplasmic extract; also called FJ1427_P035MP05G01) VHH: EVQLVESGGGLVQAGGSLRLSCAASGGSIYTYNMGWFRQAPGKEREFVAGTLWSGGDSVYADFAKGRFTLSRENAKNTLYLQMNSLKPEDTATYYCAIDPLSLTSDWRVDELSSWGKGTLVTVSS | 2.35 OD450 nm | 0.047 OD450 nm | 0.000169 s⁻¹ | 0.0442 s⁻¹ | – | – | – | –
3 | 4-MP01F04 (VHH, periplasmic extract; also called FJ1427_P035MP01F04) VHH: QVQLVESGGGLVQAGGSLRLSCAASGGTFRTRNMGWFRRAPGKEREFVAAVSWNVDNKLYADSVKGRFTISRDNGRNMVYLQMNSLKPEDTAVYYCAADNIPLSSDMRPTATEYDYWGQGTQVTVSS | 2.49 OD450 nm | 0.046 OD450 nm | 0.000258 s⁻¹ | 0.256 s⁻¹ | – | – | – | –
4 | FJ1427_P035MP01C11 (VHH, periplasmic extract; also called clone nr; 83) VHH: QVQLVESGGGLVQAGGSLRLSCAASGGTFRTRNMGWFRRAPGKEREFVAAVSWNVDNKLYAGSVKGRFTISRDNGRNMVYLQMNSLKPEDTAVYYCAADNIPLSSDMRPTATEYDYWGQGTQVTVSS | 2.78 OD450 nm | 0.045 OD450 nm | 0.000556 s⁻¹ | 0.351 s⁻¹ | – | – | – | –
5 | FJ1427_P035MP04D10 (VHH, VHH in periplasmic extract; also called clone nr; 364) VHH: QVQLVESGGGLVQAGGSLRLSCAASGRTLSRYAMGWFRQAPGKEREFVTANSWGGDTYYADSVQGRFTFSRDNAKNTVYLQMNSLQPEDTAVYYCAAAPTSFATTAYSSSNSYAYWGQGTQVTVSS | – | – | – | – | 1.26 OD450 nm | 0.077 OD450 nm | 0.00139 s⁻¹ | 0.12 s⁻¹
6 | FJ1427_P035MP04E11 (VHH, VHH in periplasmic extract; also called clone nr) VHH: QVQLVESGGGLVQAGGSLRLSCAASGRTLSRYAMGWFRQAPGKEREFVTANSWGGDTYYADSVQGRFTFSRDNAKNTVYLQMNSLQPEDTAVYYCAAAPTSFATTAYSSSNSYAYWGQGTQVTVSS | – | – | – | – | 0.94 OD450 nm | 0.065 OD450 nm | 0.00149 s⁻¹ | 0.117 s⁻¹
7 | FJ1427_P035MP04B12 (VHH, VHH in periplasmic extract; also called clone nr) VHH: QVQLVESGGGLVQAGGSLRLSCAASGRTLSRYAMGWFRQAPGKEREFVTANSWGGDTYYADSVQGRFTFSRDNAKNTVYLQMNSLQPEDTAVYYCAAAPTSFATTAYSSSNSYAYWGQGTQVTVSS | – | – | – | – | 0.936 OD450 nm | 0.074 OD450 nm | 0.00344 s⁻¹ | 0.116 s⁻¹
8 | FJ1427_P035MP05A10 (VHH, periplasmic extract; also called clone nr) VHH: QLQLVESGGGLVQAGGSLRLSCTASGLTFDGYAIGWFRQAPGKEREGVSYITGSDGSTYYIDSVKGRFTISSDIAKSTVYLQMNSLKPEDTAVYYCAVDRLGSRGLYASSWWRSGDMDLWGKGTLVTVSS | 2.18 OD450 nm | 0.24 OD450 nm | 0.0012 s⁻¹ | 0.00321 s⁻¹ | – | – | – | –
9 | 11-MP05H04 (VHH, periplasmic extract; also called FJ1427_P035MP05H04) VHH: QLQLVESGGGLVQAGGSLRLSCAASGLTFEGYAIGWFRQAPGKEREGVSYITGSDGTTYYINSVKGRFTISSDNAKSTVYLQMNTLKPEDTAVYYCAVDRLGSQGRYASAWWRSGDMDLWGKGTQVTVSS | 2.22 OD450 nm | 0.163 OD450 nm | 0.0012 s⁻¹ | 0.00163 s⁻¹ | – | – | – | –
10 | FJ1427_P035MP05C09 (VHH, periplasmic extract; also called clone nr) VHH: QLQLVESGGGLVQAGGSLRLSCAASGFTFDGYAIGWFRQAPGKEREGVSYITGSDGSTYYADSVKGRFTISSNNAKNTVYLHMNSLKPDDAAVYYCAIDRLGSRGAYVPIWWRSSDMDLWGKGTLVTVSS | 0.366 OD450 nm | 0.059 OD450 nm | 0.00609 s⁻¹ | 0.00435 s⁻¹ | – | – | – | –
11 | FJ1427_P035MP05C10 (VHH, periplasmic extract; also called clone nr) VHH: QLQLVESGGGLVQTGGSLRLSCSTSGFTFDGYAIGWFRQAPGKEPEGVSYITGSDGSTYYADSVKGRFTISSDNAKNTVYLHMNSLKPDDAAVYYCAIDRLGSGGAYVPIWWRSSDMDLWGKGTLVTVSS | 0.63 OD450 nm | 0.071 OD450 nm | 0.00406 s⁻¹ | 0.00403 s⁻¹ | – | – | – | –
12 | 12-MP05B12 (VHH, periplasmic extract; also called FJ1427_P035MP05B12) VHH: QVQLVESGGGLVQAGGSLRLSCAASGFTFDGYAIGWFRQAPGKEREGVSYITGSDGSTYYADSVKGRFTISSNNAKNTVYLHMNSLKPDDAAVYYCAIDRLGSRGAYVPIWWRSSDMDLWGKGTLVTVSS | 2.14 OD450 nm | 0.936 OD450 nm | 0.000222 s⁻¹ | 0.000547 s⁻¹ | – | – | – | –
13 | FJ1427_P035MP05B08 (VHH, periplasmic extract; also called clone nr) VHH: QLQLVESGGGLVQAGGSLRLSCVAHGLTFDGYAIGWFRQAPGKELEGVSYITGSDGSRYYADSVKGRFTISSDVAKNTVYLHMNNLKPDDAARYYCAVDRLGSRGAYVSAWWRSSDMDLWGKGTLVTVSS | 1.88 OD450 nm | 0.057 OD450 nm | 0.00253 s⁻¹ | 0.00608 s⁻¹ | – | – | – | –

Results, then the binder that gave them:

Row | OD (PE binding ELISA) (human IL-2Rα [1]) | OD (PE binding ELISA) (mouse IL-2Rα [2]) | koff (human IL-2Rα [3]) | koff (mouse IL-2Rα [4]) | OD (PE binding ELISA) [5] | OD (PE binding ELISA) (mouse IL-2Rγ [6]) | koff [7] | koff (mouse IL-2Rγ [8]) | Binder
14 | 2.38 OD450 nm | 0.046 OD450 nm | 0.00158 s⁻¹ | 0.196 s⁻¹ | – | – | – | – | FJ1427_P035MP05E04 (VHH, periplasmic extract; also called clone nr) VHH: QVQLVESGGGLVQAGGSLRLSCAASGGTFRTRNMGWFRRAPGKEREFVAAVSWSVDNKLYAGSVKGRFTISRDNGRNMVYLQMNSLKPEDTAVYYCAADNIPLSSDMRPTATEFGYWGQGTRVTVSS
15 | 2.27 OD450 nm | 0.718 OD450 nm | 0.00169 s⁻¹ | 0.00177 s⁻¹ | – | – | – | – | FJ1427_P035MP05E10 (VHH, periplasmic extract; also called clone nr) VHH: EVQLVESGGGLVQAGGSLRLSCTASGLTFDGYAIGWFRQAPGKEREGVSYITGSDGSTYYIDSVKGRFTISSDIAKSTVYLQMNSLKPEDTAVYYCAVDRLGSRGLYASSWWRSGDMDLWGKGTLVTVSS
16 | 2.09 OD450 nm | 0.107 OD450 nm | 0.00108 s⁻¹ | 0.00284 s⁻¹ | – | – | – | – | FJ1427_P035MP05D10 (VHH, periplasmic extract; also called clone nr; 460) VHH: QVQLVESGGGLVQAGGSLRLSCTASGLTFDGYAIGWFRQAPGKEREGVSYITGSDGSTYYRDSVKGRFTISSDNAKSTVYLQMNTLKPEDTAVYYCAVDRLGSRGLYASSWWRSGDMDLWGKGTLVTVSS
17 | 2.14 OD450 nm | 0.632 OD450 nm | 0.00044 s⁻¹ | 0.000844 s⁻¹ | – | – | – | – | FJ1427_P035MP05C11 (VHH, periplasmic extract; also called clone nr) VHH: QVQLVESGGGLVQAGGSLRLSCTASGLTFEGYAIGWFRQAPGKEREGVSYITGSDASTYYIDSVKGRFTISSDFAKSTVYLQMNNLKPEDTAVYYCAVDRLGSRGGYASSWWRSGDMDLWGKGTLVTVSS
18 | 2.39 OD450 nm | 0.38 OD450 nm | 0.000908 s⁻¹ | 0.00258 s⁻¹ | – | – | – | – | FJ1427_P035MP05G08 (VHH, periplasmic extract; also called clone nr) VHH: QLQLVESGGGLVQAGGSLRLSCTASGLTFEGYAIGWFRQAPGKEREGVSYITGSDASTYYIDSVKGRFTISSDFAKSTVYLQMNNLKPEDTAVYYCAVDRLGSRGGYASSWWRSGDMDLWGKGTLVTVSS
19 | 2.26 OD450 nm | 0.154 OD450 nm | 0.00105 s⁻¹ | 0.00244 s⁻¹ | – | – | – | – | FJ1427_P035MP05H09 (VHH, periplasmic extract; also called clone nr) VHH: QLQLVESGGDLVQPGGSLRLSCTASGLTFDGYAIGWFRQAPGKEREGVSYITGSNGSTYYIDSVKGRFTISSDIAKSTVYLQMNTLKPEDTAVYYCAVDRLGSRGLYASSWWRSGDMDLWGKGTLVTVSS

Source: patent US20240409645A1 (DUALYX, published 2024)
